Experimental data taken from patent US20240182563A1 (GENOME, published 2024).

T1: human CNTN4-10xHis (human, UniProt Q8IWV2 19-1000)
T1 sequence: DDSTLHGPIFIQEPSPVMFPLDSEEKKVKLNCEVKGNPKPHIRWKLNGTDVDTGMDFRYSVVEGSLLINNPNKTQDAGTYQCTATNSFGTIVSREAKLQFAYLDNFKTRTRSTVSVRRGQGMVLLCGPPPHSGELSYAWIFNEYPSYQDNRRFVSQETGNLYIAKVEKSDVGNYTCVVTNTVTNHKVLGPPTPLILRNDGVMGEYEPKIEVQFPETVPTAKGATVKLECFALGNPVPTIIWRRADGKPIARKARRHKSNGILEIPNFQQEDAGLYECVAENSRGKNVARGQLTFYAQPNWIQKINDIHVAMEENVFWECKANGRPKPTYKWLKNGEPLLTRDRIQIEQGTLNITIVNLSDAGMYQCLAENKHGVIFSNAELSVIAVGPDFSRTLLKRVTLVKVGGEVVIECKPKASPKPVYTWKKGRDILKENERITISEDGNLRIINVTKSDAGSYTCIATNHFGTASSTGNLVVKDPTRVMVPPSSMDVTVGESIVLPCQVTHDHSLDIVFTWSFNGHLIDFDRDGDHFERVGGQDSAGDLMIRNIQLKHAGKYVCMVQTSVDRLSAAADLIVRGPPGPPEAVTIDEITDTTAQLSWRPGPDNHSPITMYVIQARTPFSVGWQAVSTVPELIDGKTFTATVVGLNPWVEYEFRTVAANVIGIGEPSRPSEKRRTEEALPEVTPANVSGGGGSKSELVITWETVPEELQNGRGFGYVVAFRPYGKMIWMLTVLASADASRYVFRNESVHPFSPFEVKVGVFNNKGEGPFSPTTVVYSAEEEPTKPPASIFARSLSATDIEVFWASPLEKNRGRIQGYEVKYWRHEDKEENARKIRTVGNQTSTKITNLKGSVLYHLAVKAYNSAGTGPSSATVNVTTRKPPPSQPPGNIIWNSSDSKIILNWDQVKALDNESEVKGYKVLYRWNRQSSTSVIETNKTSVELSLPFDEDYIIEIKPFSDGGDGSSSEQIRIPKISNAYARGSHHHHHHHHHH

T2: mouse CNTN4-10xHis (mouse, UniProt Q69Z26 19-1000)
T2 sequence: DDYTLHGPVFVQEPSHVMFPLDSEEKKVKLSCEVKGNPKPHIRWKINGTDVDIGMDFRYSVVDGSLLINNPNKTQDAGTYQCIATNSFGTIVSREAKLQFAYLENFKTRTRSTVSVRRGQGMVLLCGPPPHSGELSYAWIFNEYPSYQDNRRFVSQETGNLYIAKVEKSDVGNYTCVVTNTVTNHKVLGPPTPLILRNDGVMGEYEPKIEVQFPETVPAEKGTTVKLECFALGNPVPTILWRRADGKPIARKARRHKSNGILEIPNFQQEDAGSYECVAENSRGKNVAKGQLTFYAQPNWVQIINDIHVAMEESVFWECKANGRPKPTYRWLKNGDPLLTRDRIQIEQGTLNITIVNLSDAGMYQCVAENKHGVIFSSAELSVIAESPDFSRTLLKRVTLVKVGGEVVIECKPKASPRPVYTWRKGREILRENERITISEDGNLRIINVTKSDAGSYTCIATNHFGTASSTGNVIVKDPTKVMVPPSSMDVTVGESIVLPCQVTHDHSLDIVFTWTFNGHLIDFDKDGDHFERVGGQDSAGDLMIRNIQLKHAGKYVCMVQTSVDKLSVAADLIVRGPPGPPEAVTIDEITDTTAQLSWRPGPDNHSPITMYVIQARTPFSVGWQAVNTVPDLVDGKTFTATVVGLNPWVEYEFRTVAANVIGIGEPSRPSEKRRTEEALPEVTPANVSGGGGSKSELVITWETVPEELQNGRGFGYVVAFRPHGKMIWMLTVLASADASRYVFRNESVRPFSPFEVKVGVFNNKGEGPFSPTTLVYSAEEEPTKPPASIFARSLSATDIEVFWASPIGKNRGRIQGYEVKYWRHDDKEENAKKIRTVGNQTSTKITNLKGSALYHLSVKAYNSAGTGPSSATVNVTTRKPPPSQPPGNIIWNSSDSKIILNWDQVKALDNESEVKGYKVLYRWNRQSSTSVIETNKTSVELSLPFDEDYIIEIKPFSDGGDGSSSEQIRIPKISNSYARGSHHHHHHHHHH

T3: human CNTN4 antigen expressed on the cell membrane of 293FT cells (human) (UniProt Q8IWV2)
T3 sequence (looked up): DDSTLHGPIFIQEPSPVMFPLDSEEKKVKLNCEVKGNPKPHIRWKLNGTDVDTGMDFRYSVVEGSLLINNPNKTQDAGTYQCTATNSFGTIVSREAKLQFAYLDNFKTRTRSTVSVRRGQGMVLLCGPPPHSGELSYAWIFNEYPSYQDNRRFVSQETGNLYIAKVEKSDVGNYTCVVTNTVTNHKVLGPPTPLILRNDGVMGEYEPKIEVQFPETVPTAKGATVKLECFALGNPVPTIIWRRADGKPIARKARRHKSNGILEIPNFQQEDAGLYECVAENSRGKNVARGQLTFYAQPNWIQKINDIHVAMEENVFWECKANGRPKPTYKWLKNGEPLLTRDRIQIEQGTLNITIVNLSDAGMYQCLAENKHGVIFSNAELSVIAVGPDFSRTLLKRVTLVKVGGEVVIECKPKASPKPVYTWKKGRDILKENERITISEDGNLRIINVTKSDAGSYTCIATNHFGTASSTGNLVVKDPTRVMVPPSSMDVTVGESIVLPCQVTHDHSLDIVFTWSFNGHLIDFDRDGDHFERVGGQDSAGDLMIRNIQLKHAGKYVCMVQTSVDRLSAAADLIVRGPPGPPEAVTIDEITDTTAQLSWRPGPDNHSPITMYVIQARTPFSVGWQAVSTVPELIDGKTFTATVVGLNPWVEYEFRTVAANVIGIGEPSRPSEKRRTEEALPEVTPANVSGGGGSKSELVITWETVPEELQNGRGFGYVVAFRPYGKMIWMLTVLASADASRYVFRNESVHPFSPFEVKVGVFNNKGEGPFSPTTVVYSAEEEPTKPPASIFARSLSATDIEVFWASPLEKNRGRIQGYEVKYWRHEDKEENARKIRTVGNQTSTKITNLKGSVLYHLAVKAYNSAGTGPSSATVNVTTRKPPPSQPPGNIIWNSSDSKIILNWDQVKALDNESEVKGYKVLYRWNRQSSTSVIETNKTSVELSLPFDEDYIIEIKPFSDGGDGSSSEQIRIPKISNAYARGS

T4: mouse CNTN4-rabbit Fc (mouse; rabbit, UniProt Q69Z26 19-1000, limits assumed)
T4 construct: not shown: rabbit Fc
T4 sequence (looked up): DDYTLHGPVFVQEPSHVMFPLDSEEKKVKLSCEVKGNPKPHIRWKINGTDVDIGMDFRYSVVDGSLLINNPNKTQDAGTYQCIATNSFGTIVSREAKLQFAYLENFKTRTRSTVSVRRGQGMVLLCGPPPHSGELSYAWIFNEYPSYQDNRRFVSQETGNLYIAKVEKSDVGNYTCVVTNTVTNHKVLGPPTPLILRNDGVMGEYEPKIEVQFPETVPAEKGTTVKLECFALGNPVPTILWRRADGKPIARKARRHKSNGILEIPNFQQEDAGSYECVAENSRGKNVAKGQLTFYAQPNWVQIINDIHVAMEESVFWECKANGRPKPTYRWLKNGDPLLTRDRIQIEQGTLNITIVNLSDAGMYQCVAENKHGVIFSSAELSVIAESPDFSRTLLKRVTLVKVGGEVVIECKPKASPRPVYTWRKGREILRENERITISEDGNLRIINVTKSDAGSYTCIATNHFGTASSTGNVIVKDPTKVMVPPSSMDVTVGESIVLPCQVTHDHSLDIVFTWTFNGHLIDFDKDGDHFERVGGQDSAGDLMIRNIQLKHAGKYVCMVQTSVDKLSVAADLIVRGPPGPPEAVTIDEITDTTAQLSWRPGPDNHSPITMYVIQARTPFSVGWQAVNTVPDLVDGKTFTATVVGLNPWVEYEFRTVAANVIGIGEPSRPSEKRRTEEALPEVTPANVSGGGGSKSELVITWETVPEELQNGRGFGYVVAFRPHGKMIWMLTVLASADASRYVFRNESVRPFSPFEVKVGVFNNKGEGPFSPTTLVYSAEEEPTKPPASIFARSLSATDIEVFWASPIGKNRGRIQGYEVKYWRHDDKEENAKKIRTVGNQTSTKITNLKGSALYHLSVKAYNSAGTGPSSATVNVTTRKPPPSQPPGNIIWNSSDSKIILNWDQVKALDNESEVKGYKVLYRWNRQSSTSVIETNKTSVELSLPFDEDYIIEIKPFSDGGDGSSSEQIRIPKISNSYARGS

T5: human CNTN4-rabbit Fc (human; rabbit, UniProt Q8IWV2 19-1000, limits assumed)
T5 construct: not shown: rabbit Fc
T5 sequence (looked up): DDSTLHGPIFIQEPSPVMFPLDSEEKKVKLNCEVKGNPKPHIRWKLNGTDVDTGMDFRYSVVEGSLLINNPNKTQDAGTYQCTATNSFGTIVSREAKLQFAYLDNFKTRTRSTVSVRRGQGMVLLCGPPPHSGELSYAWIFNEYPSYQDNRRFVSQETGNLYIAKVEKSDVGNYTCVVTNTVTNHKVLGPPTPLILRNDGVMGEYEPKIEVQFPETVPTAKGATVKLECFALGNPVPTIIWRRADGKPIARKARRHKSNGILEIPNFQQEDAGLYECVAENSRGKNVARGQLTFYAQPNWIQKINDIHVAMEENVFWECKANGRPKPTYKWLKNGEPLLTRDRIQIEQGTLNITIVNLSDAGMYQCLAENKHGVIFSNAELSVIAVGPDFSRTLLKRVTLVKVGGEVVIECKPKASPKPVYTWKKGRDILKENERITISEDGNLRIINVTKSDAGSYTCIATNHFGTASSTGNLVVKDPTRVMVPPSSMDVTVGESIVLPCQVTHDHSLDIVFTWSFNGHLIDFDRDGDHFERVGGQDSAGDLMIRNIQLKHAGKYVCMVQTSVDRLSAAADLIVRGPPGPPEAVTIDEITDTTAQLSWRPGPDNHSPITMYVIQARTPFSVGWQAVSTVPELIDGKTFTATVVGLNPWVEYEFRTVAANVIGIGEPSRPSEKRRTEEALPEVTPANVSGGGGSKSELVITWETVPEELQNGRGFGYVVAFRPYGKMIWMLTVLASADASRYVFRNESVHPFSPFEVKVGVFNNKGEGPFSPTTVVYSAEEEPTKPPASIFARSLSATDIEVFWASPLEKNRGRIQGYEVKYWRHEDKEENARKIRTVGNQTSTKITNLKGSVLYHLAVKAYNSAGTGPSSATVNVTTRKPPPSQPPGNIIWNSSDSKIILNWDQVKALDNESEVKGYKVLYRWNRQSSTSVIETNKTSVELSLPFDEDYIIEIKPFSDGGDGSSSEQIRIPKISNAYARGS


Tests used:
human CNTN4-10xHis = molecular target: T1, human CNTN4-10xHis; assay: ELISA, plate coated with CNTN4-10xHis, anti-human Fc-HRP
Procedure: (§1) The LAH2, L1H2, and L2H2 antibodies prepared in Example 3.1 were subjected to an ELISA test together with A-01. An ELISA plate was coated with 200 ng of antigens (human CNTN4-10xHis or mouse CNTN4-10xHis). For antibody binding, antibodies were serially diluted from a maximum of 1 μM to 0.0001 nM, thereby binding to the antigen. Anti-human Fc-HRP was used as a secondary antibody for antibody detection. Color was developed using ABTS, which is a color developing reagent, and the absorbance at 405 nm was measured.

mouse CNTN4-10xHis = molecular target: T2, mouse CNTN4-10xHis; assay: as above
Procedure: as §1

[1] = molecular target: T3, human CNTN4 antigen expressed on the cell membrane of 293FT cells (human); assay: FACS, 293FT cells transfected with human CNTN4, 40 ug/mL, anti-hCk-PE
mouse CNTN4-rabbit Fc = molecular target: T4, mouse CNTN4-rabbit Fc; assay: ELISA, plate coated with antigen-rabbit Fc, anti-human kappa-HRP
human CNTN4-rabbit Fc = molecular target: T5, human CNTN4-rabbit Fc; assay: as above

EC50 (human CNTN4-10xHis)	EC50 (mouse CNTN4-10xHis)	Shift % [1]	EC50 (mouse CNTN4-rabbit Fc)	EC50 (human CNTN4-rabbit Fc)	Binder
0.018 nM	0.019 nM				anti-CNTN4 humanized antibody L2H2 (antibody, V domains shown, in the form of IgG4) VH: EVQLLESEGGLVQPGGSLRLSCAASGFTFSSFNMFWVRQAPGKGLEWVAEISGGGGSTWYAPAVKGRATISRDNSKNTVYLQMNSLRAEDTAVYYCAKSADTWSYGAATIDAWGQGTLVTVSS VL: ELTQDPAVSVALGQTVRITCSGSSGSYGWYQQKPGQAPVTLIYDNTNRPSGIPDRFSGSSSGSTGSLTITGAQAEDEADYYCGGYDGSTDVFGGGTKLTVL
		15.8%	1.06 nM	2.37 nM	anti-CNTN4 scFv-hCk S138 (scFv, part only; not given: linker and kappa constant region, V domains shown, not shown: another chain or arm of the molecule; a dimerising Fc or GST; small tags and cut ends) VL: ALTQPSSVSANPGETVNITCSGGGSYAGSYYYGWYQQKAPGSAPVTVIYDSTNRPSNIPSRFSGSLSGSTNTLTITGVRAEDEAVYYCGGYDGSTDVFGAGTTLTVL VH: AVTLDESEGGLQTPGGALSLVCKASGFTFSSFNMFWVRQAPGKGLEYVAEISGGGGSTWYAPAVKGRATISRDNGQSTVRLQLNNLRAEDTGTYYCAKSADTWSYGAATIDAWGHGTEVIVSS
